Literature values, collected in article PMC8967867.
pKd: −log10 of the molar value.

Target: NCOA3 CID (Homo sapiens) (UniProt Q9Y6Q9)
Sequence (Q9Y6Q9 1023-1093): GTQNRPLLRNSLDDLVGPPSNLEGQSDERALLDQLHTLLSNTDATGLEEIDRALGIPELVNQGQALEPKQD

CBP NCBD, sequence (Q92793 2058-2116): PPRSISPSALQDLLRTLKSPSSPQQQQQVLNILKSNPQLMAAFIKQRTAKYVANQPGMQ

In the case of CBP NCBD (from UniProt Q92793), the pKd is given as 6.70.
